This series concerns the molecule itself. Nature of the series: ABEL trap-based single-molecule diffusometry.

B1: alkaline phosphatase from bovine intestinal mucosa, labeled with JF646 (enzyme, UniProt P19111 20-506, looked up)
chain: LVPVEEEDPAFWNRQAAQALDVAKKLQPIQTAAKNVILFLGDGMGVPTVTATRILKGQMNGKLGPETPLAMDQFPYVALSKTYNVDRQVPDSAGTATAYLCGVKGNYRTIGVSAAARYNQCKTTRGNEVTSVMNRAKKAGKSVGVVTTTRVQHASPAGAYAHTVNRNWYSDADLPADAQMNGCQDIAAQLVNNMDIDVILGGGRKYMFPVGTPDPEYPDDASVNGVRKRKQNLVQAWQAKHQGAQYVWNRTALLQAADDSSVTHLMGLFEPADMKYNVQQDHTKDPTLQEMTEVALRVVSRNPRGFYLFVEGGRIDHGHHDDKAYMALTEAGMFDNAIAKANELTSELDTLILVTADHSHVFSFGGYTLRGTSIFGLAPSKALDSKSYTSILYGNGPGYALGGGSRPDVNDSTSEDPSYQQQAAVPQASETHGGEDVAVFARGPQAHLVHGVEEETFVAHIMAFAGCVEPYTDCNLPAPTTATSIPD
modifications: JF646 dye, attached by amine-NHS chemistry (nonspecific labeling; one or two dyes per molecule seen)
In general, stoichiometry N refers to the number of molecules, sites or subunits per partner or assembly. Regarding B1, the “stoichiometry N” value turned out to be 2.
